Sequences and labels used below:
B2: Arap3-Sam wild-type (domain or fragment, human, UniProt Q8WWN8 1-80, looked up)
chain: MAAPQDLDIAVWLATVHLEQYADTFRRHGLATAGAARGLGHEELKQLGISATGHRKRILRLLQTGTEEGSLDPKSDSAME
B3: first Sam domain of Odin (Odin-Sam1) (domain or fragment, human, UniProt Q92625 691-770, looked up)
chain: ISGLRTLEQSVGEWLESIGLQQYESKLLLNGFDDVHFLGSNVMEEQDLRDIGISDPQHRRKLLQAARSLPKVKALGYDGN

Test [1] addresses B3. Nature of the test: NMR titration.
Test [2] deals with B3. Nature of the test: ITC. On the technique in general: In ITC the heat of successive injections is recorded.
The test “Arap3-Sam wild-type” has as its target B2. Nature of the test: SPR.

B1: Sam domain of the EphA2 receptor (EphA2-Sam) (domain or fragment, human, UniProt P29317 901-976, looked up)
chain: SEGVPFRTVSEWLESIKMQQYTEHFMAAGYTAIEKVVQMTNDDIKRIGVRLPGHQKRIAYSLLGLKDQVNTVGIPI
In the case of B1, the binding result in test [1] is “binds”.
The Kd is the constant that tells how readily two partners part at equilibrium. A higher Kd goes with lower affinity. In test [2], B2 registered a Kd of 370 ± 80 nM.
B3 showed a Kd with Arap3-Sam wild-type of 2900 ± 400 nM.

Source of the values: article PMC3631714 (Chembiochem : a European journal of chemical biology, 2012).
